Residue numbers refer to the chain shown, from its start. Where only a bound is given, the exact number is not on record here.

Sequences and labels used below:
T1: RAMP2 Scr V1
T1 construct: it is not part of the secreted protein; Expressed in HEK cells
T1 chain: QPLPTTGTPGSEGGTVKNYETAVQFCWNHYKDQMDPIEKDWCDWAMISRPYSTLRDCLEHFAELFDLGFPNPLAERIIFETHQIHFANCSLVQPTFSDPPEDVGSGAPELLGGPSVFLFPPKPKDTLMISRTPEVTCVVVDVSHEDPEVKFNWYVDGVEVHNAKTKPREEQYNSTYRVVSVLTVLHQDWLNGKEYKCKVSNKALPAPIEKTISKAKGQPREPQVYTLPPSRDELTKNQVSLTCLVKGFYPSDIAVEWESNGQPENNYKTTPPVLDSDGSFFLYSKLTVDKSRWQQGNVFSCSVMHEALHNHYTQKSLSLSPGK

T2: RAMP3_Scr_V1
T2 construct: Expressed in HEK cells
T2 chain: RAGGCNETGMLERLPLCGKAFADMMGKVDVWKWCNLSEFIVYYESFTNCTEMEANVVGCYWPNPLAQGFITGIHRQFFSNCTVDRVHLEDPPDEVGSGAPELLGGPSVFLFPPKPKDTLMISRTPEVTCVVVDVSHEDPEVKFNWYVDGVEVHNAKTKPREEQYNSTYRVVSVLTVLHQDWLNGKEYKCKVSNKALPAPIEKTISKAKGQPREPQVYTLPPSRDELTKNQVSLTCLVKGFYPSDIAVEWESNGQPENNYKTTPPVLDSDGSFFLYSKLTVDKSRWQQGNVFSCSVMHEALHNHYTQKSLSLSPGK

T3: RAMP2 IMM ECD V1
T3 construct: The entry includes a signal peptide whose residues cannot be read (drawing); The text says 'RAMP2 ECD'; also called RAMP2 ECD
T3 chain: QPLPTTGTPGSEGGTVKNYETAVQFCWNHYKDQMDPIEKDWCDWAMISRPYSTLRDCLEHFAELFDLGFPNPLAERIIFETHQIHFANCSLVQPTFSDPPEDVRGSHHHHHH

B1: RAMP2-rIgG-k1-1H7 (antibody, V domains shown)
VH: QSLEESGGDLVKPEGSLTLTCTASGFSFSISYWICWVRQTPGKGLEWIGCIYGGSSGRPYYASWAKGRFTISKTSSTTVTLQMTSLTAADTAAYFCATTAYGGYGYGTWGPGTLVTVSS
VL: AAVLTQTPSSTSGPVGGTVTIKCQASQNIGSFLSWYQQKPGQPPKLLIYSASSLATGVPSRFSGSGSGTQFTLTISGVQCDDAATYYCLGFYAYRSDDGTAFGGGTEVVVK
notes: tested as recombinant rabbit IgG-kappa1; also called rlgG-k1-1H7; 1H7_#5
B2: RAMP2-rIgG-k1-1A10 (antibody, V domains shown)
VH: QSLEESGGGLVQPEGSLTLTCTASGFSFSSSYYMCWVRQAPGKGLEWIGSIYTLSGSTAYASWAKGRFTISKTSSTTVTLQMTSLTAADTAMYFCARDSDGWGVSFNLWGPGTLVTVSS
VL: AAVMTQTPSSLSAAVGGTVTIKCQASQSIRNQVSWYQQKPGQRPKLLIYRASTLESGVPSRFKGSGSGTDFTLTISDLECADAATYYCQCTYGSSSSNRYGNTFGGGTEVAVK
notes: tested as recombinant rabbit IgG-kappa1; also called rlgG-k1-1A10; 1A10_#7
B3: RAMP2-rIgG-k1-1H6#4 (antibody, V domains shown)
VH: QEHLVESEGGLFKPTDTLTLTCTVSGFSLSSYGVSWVRQAPGKGLEWIGVIGATGSAYYANWAKSRSTITRNTNLNTVTLKVTSLTAADTATYFCARDDVLTGMDLWGPGTLVTVSS
VL: APVLTQTPASVEAAVGGTVTIKCQASQSINSWLSWYQQKPGQPPKLLIYQASKLASGVPSRFKGSGSGTEYTLTISDLKCADAATYYCQSYDYASNSGYVSNPFGGGTEVVVK
notes: tested as recombinant rabbit IgG-kappa1; also called rlgG-k1-1H6
B4: RAMP2-rIgG-k1-2A8 (antibody, V domains shown)
VH: QSLEESGGGLVQPEGSLTLTCTASGFDLSRYYYIFWVRQAPGKGLEWIGCIYIGGNIITYYASWAKGRFTISKTSSPAVTLQMTSLTVADTATYFCARGTGYGGYGDVSLWGPGTLVTVSS
VL: APVLTHTAASVSEPVGGIVTINCQASQSIGSNLAWYQQKSGQPPKLLIYDASNLVSGVPSRFKGSRSGTEYTLTISDLECADAGTYYCQGYYYGSSTSYNLVSFGGGTEVVVK
notes: tested as recombinant rabbit IgG-kappa1; also called rlgG-k1-2A8; 2A8_#12
B5: RAMP2-rIgG-k1-2A6 (antibody, V domains shown)
VH: QSVEESGGDLVKPGASLTLTCTASGFSFSSRYYMCWVRQAPGKGLEWIGCIFGGSSGNTHYASWAKGRFTIAKTSSTTVTLRMTSLTAADTATYSCVRSDAWGVNLWGPGTLVTVSS
VL: DVVMTQTPASVEAAVGGTVTIKCQASQSISNLLAWYQQKPGQPPKRLIYGASNLESGVPSRFKGSGSGTQFTLTISDLECADAATYYCQCSYDGSSPNAFGGGTEVVVE
notes: tested as recombinant rabbit IgG-kappa1; also called rlgG-k1-2A6; 2A6_#9
B6: RAMP2-rIgG-k1-2H3 (antibody, V domains shown)
VH: B5 VH with G49A, G57D, T59S, H60Y, S63R, A72S, S95F
VL: AAVMTQTPSPVSGVVGGTVTIKCQASQSIYGYFSWYQQKPGQPPKLLIYSASDLASGVPSRFKGSGSGTQFTLTISDLECADAATYYCQCSYDGSSPNAFGGGTEVVVK
notes: tested as recombinant rabbit IgG-kappa1; also called rlgG-k1-2H3; 2H3_#13
B7: RAMP2-rIgG-k1-1A7#1 (antibody, V domains shown)
VH: B1 VH with L3V
VL: DGVMTQTPSSVSAAVGSTVTISCQASQSVFSNNYLSWYQQKPGQPPKLLIYTASSLASGVPSRFKGSGSGTQFTLTISDLECADAATYYCQCTYGKSGTDTYLNAFGGGTEVVVK
notes: tested as recombinant rabbit IgG-kappa1 made in CHOEBNALT85-1E9 cells (supernatant); also called rlgG-k1-1A7
B8: RAMP3-rIgG-k1-6C2 (antibody, V domains shown)
VH: QEQLEESEGGLFKPTDTLTLTCTVSGFSLSVYALTWVRQAPGNGLEWIGAIGNSGNTYYASWAKSRSTITRNTNENTVTLKMTSLTAADTATYFCARGYVRINVWGPGTLVTVSS
VL: DGVMTQTPSSVSAAVGGTVTISCQSSQSVYKNNYLSWFQQKPGQPPKLLIYEISKLESGVPDRFSGSGSGTQFTLTISGVQCDDAATYYCLGGYDDDSDTSFGGGTEVVVK
notes: tested as recombinant rabbit IgG-kappa1; also called rlgG-k1-6C2; 6C2_#25
B9: RAMP3-rIgG-k1-4C10 (antibody, V domains shown)
VH: QEQLEESGGGLVKPTDTLTLTCTVSGFSLSTNSIFWVRQAPGNGLEWIGAISYAGGTAYASWAKSRSTITRNTNLNTVTLKMTSLTAADTATYFCGRGYVGYSRSKGDIWGPGTLVTVSS
VL: DGVMTQTPSSTSAAVGSTVTISCQSTQSIINNNWLAWYQQKPGHSPKLLIYDASTLASGVPSRFSGSGSGTQFTLTISDLECDDAATYYCAARYSGDIYTFGGGTEVVVR
notes: tested as recombinant rabbit IgG-kappa1; also called rlgG-k1-4C10; 4C10_#19
B10: RAMP3-rIgG-k1-5H9 (antibody, V domains shown)
VH: QSLEESEGGLFKPTDTLTVTCIVSGLSLSRNAMSWVRQAPGSGLEWIGVIVTYGDTYYASWAKSRSTITRNTNENTVTLKMTSLTAADTATYFCIGGLDIWGPGTLVTVSS
VL: DVVMTQTPASVEAAVGGTVTIKCQATESIASWLAWYQQKAGQPPKLLIYEASKLESGVPSRFKGSGSGTEFTLTISDLECADAATYYCQSYLYSSSNTYGNSFGGGTEVVVK
notes: tested as recombinant rabbit IgG-kappa1; also called rlgG-k1-5H9; H9_#22
B11: RAMP3-rIgG-k1-6B8 (antibody, V domains shown)
VH: QSLEESGGGLVKPEGSLTLTCTASGFFFDRSYWICWVRQTPAKGLEWIACIVVSSGATYYASWAKGRLTLSKTSSTTVTLQMTSLTAADTAIYFCARDSSSTSGVEFNLWGPGTLVTVSS
VL: DVMMTQTPASVSEPVGGTVTIKCQASQNIGNNLAWYQQKPGQPPKLLIYLTSTLASGVPSRFKGSRSGTEFTLTISDLECADAATYFCQSYLYTTYAFGGGTEVVVK
notes: tested as recombinant rabbit IgG-kappa1; also called rlgG-k1-6B8; 6B8_#24
B12: RAMP3-rIgG-k1-6D8 (antibody, V domains shown)
VH: QSVEESGGDLVRPEGSLTLTCTASGFSLSSSYWICWVRQAPGKGLEWIACIVSNTGTTYYASWAKGRLTLSKTSSTTVTLQMTSLTAADTATYFCARDNNSKSGVEFNLWGPGTLVTVSS
VL: B11 VL with M3V, Q42H, T51A, F87Y
notes: tested as recombinant rabbit IgG-kappa1; also called rlgG-k1-6D8; 6D8_#28
B13: RAMP3-rIgG-k1-3A5 (antibody, V domains shown)
VH: QSLEESGGGLVQPEGTLTLTCTVSGFSFSSNYWICWVRQAPGKGLEWIACIVTNSGTTYYTSWAKGRLTLSKTSSTTVTLQMTSLTAADTATYFCARDNNSVTGVEFNLWGPGTLVTVSS
VL: DVVMTQTPASVSAAVGATVTIKCQASETIGNNLAWYQQKPGQPPKVLMFLASTLASGVPSRFKGSRSGTEYTLTISGVQCDDAATYYCQSYLGTSYAFGGGTEVVVK
notes: tested as recombinant rabbit IgG-kappa1; also called rlgG-k1-3A5; 3A5_#15
B14: RAMP3-rIgG-k1-3A12 (antibody, V domains shown)
VH: QEQLEESEGGLFKPTDTLTLTCTVSGFSLSSYGVSWVRQAPGNGLEYIGFIGKTGSAYYASWAKSRSTITRNTTLNTVTLKMTSLTVADTATYFCARLGPGSIYYFDIWGPGTLVTVSS
VL: DPMLTQTPSSKSVPVGGTVTINCQSSESVYDNNWLAWFQQKPGQPPKRLIYSASTLASGVSSRFKGSGSGTQFTLTISDVQCDDAATYYCTGYKSRTTDEIAFGGGTEVVVK
notes: tested as recombinant rabbit IgG-kappa1; also called rlgG-k1-3A12; 3A12_#17

In the first experiment the target is T1, RAMP2 Scr V1. Nature of the experiment: ELISA, 24-well supernatants on coated antigen. The method, then: (§1) Amplified VH and VL were purified and altogether 20 cloning reactions per target were performed for cloning into rabbit IgG-κ1 encoding two-cassette expression plasmid by using Ligase Independent Cloning (LIC) method. Resulting antibody library pools were grown in E. coli strain DH5a. Plasmid DNA was purified and transfected into CHOEBNALT85-1E9 cells for transient production of antibodies in serum-free media for 48 hours in 24-well format. Cell culture supernatants were tested for RAMP2 Scr and RAMP2 ECD or RAMP3 Scr binding in ELISA (wells coated at 1 μg/ml in PBS).
On the technique in general: An ELISA detects its analyte on a solid surface through an enzyme-linked reagent.
Turning to B1, the binding result is “binds”. Take B2: the binding result is given as “binds”.

For the molecule B3, the binding result is “binds”. As to B4, the binding result is reported as “binds”. Turning to B5, the binding result is on record as “binds”. For B6, the binding result was “binds”.

A further experiment addresses T1, RAMP2 Scr V1. Nature of the experiment: ELISA, single-clone supernatants on RAMP2 Scr. Here is the method: (§2) 8 specific ELISA positive pools against both targets were selected for single clone isolation. Single clones were selected in LB-Amp solid medium, colonies were grown in liquid medium o/n on shaker at 37° C. in 96-well microtiter plates (2-4 96-well plates per target), plasmid DNA was isolated and transfected into CHOEBNALT85-1E9 cells for antibody transient production. 48-72 hours after transfection supernatants were analyzed by ELISA on RAMP2 Scr or RAMP3 Scr respectively.
Consider B7, for which the binding result was “binds”.

The target in a further experiment is T2, RAMP3_Scr_V1. Nature of the experiment: ELISA, single-clone supernatants on RAMP3 Scr. Here is the method:
as §2
In the case of B8, the binding result is “binds”. Regarding B9, the binding result is listed as “binds”. Take B10: the binding result is given as “binds”. Consider B11, for which the binding result was “binds”. As to B12, the binding result is recorded as “binds”.

The target in the next experiment is T2, RAMP3_Scr_V1. The experiment in a line: ELISA, 24-well supernatants on coated RAMP3 Scr. The method, then: as §1
Turning to B13, the binding result is listed as “binds”. On the same count and under the same terms, under B14 stands “binds”.

In the next experiment the target is T3, RAMP2 IMM ECD V1. Nature of the experiment: direct ELISA, 6-well supernatants at 8-500 ng/ml on RAMP2 ECD coated at 1.0 µg/ml. Here is the method:
Immuno modules (Thermo Scientific™) were coated with RAMP2 ECD or RAMP3 Scr, 1.0 μg/ml in PBS, 100 μl/well, 20 h at 4° C. Supernatants of anti-RAMP2 and anti-RAMP3 rabbit IgG-κ1 antibody clones were transfered into wells at different concentrations (8-500 ng/ml; 100 μL/well, in PBS-0.05% Tween 20-1% BSA) and the plates were incubated for 60 min. on a shaker at room temperature (RT). Goat anti-rabbit-IgG HRP conjugate (Invitrogen; 1:20 000 in 1% BSA-PBS-0.05% Tween 20; 100 μL/well) was used as secondary reagent in direct ELISA (incubation time 60 min. at RT). To visualize, TMB substrate was added for 10 min. and stopped with 0.5 M H₂SO₄. Between every incubation step the wells were washed 4 times with PBS-Tween 20.
Molecule B7 showed a titer below 8 ng/mL. On to B1, for which the titer was below 8 ng/mL. Same read-out and setting: under B2 stands below 8 ng/mL; under B3, below 8 ng/mL. The molecule B4 yielded a titer below 8 ng/mL. Same read-out and setting: under B5 stands below 8 ng/mL; under B6, below 8 ng/mL.

The record behind these values is patent US20260265383A1 (FUSION ANTIBODIES, published 2026).
